Test results reported in the supplement of paper PMC9170038.

What was measured:
[1] = test system: MS2 coat protein; test: apparent KD of MS2 coat protein, switch OFF state (with FMN for OFF switches, without FMN for ON switches); designed switch direction (-1 OFF switch, 1 ON switch): -1; higher = weaker reporter binding; settings: FMN input: 0 or 200 uM; Eterna round: R93 (includes R88 designs)
How it was run: (§1)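 Designed RNA switches were transcribed on-chip from Illumina sequencing clusters and titrated with SNAP-549-labelled MS2 coat protein in twofold steps from 0.7 or 1.5 nM up to 3 µM. Each step lasted 0.8–1.5 h at first and 10–20 min by the end, in 100 mM Tris-HCl pH 7.5, 80 mM KCl and 4 mM MgCl2, without or with constant ligand. Apparent KD is the median, for each design, of fits to normalised cluster binding curves.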

[2] = test system: MS2 coat protein; test: apparent KD of MS2 coat protein, switch ON state; designed switch direction (-1 OFF switch, 1 ON switch): -1; higher = weaker reporter binding; settings: FMN input: 0 or 200 uM; Eterna round: R93 (includes R88 designs)
How it was run: as §1

[3] = test system: MS2 coat protein; test: apparent KD of MS2 coat protein; designed switch direction (-1 OFF switch, 1 ON switch): 1; higher = weaker reporter binding
How it was run: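 An oligonucleotide input, 200 uM small-molecule ligand, or no input was present during titration of SNAP-549-labelled MS2 coat protein, which was doubled from 0.7 or 1.5 nM to 3 µM. Designed RNA switches had been transcribed on Illumina chips by stalled E. coli RNA polymerase. Apparent KD per design is the median over clusters of curves fitted to normalised cluster fluorescence.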

[4] = input ligand: microRNA oligo, concentration not stated
[5] = Eterna round: R95, input ligand: microRNA oligo, concentration not stated

Sequence: AAAAAGCGAGGAUAUACAUGAGGAUCACCCAUGUCAAAAAAAUAGAAAAAAAUAAAAAGUAGAAGGCGCAAAAA [Ex 3 #1]
- apparent KD of MS2 coat protein [1]: 63.6 nM
- apparent KD of MS2 coat protein [2]: 75.8 nM

Sequence: AAAAAGGCAGGAUAUACAUGAGGAUCACCCAUGUAAAGAAAGAAAGAAGAAAGGGAAAGUAGAAGGGCCAAAAA [Ex3 sub 1]
- apparent KD of MS2 coat protein [1]: 41.2 nM
- apparent KD of MS2 coat protein [2]: 34.4 nM

Sequence: AAAAAGGCAGGAUAUACAUGAGGAUCACCCAUGUAGUUGACAAAAAAGAGUCAACAGUGUAGAAGGGCCAAAAA [Exclusion3-cac1]
- apparent KD of MS2 coat protein [1]: 22.1 nM
- apparent KD of MS2 coat protein [2]: 18.1 nM

Sequence: AAAAAGGCAGGAUAUACAUGAGGAUCACCCAUGUUAAAAAAAAAAAAAAAAAAAAAGUGUAGAAGGGCCAAAAA [Default title]
- apparent KD of MS2 coat protein [1]: 47.6 nM
- apparent KD of MS2 coat protein [2]: 37.4 nM

Sequence: AAAAAGGCAGGAUAUACGAAACAGGGAAACCUGAAAGGGAAACAUGAGGAUCACCCAUGUAGAAGGGCCAAGAA [Clint Eastwood 64% 2]
- apparent KD of MS2 coat protein [1]: 82 nM
- apparent KD of MS2 coat protein [2]: 48.3 nM

Sequence: AAAAAGGGAGGAUAUACAGGAGGUAAGGUCAAAAAAAAAAAACAUGAGGAUCACCCAUGUAGAAGGUUUAAAAA [Ecls2-V]
- apparent KD of MS2 coat protein [1]: 31 nM
- apparent KD of MS2 coat protein [2]: 25.8 nM

Sequence: AAAAAGGGAGGAUAUACAUGAGGAUCACCCAUGUAAAAAAUCGCGGGAGGGAGGGAAGGUAGAAGGCCCAAAAA [Excls3-V]
- apparent KD of MS2 coat protein [1]: 15.5 nM
- apparent KD of MS2 coat protein [2]: 20.1 nM

Sequence: AAAAAGGGAGGAUAUACAUGAGGAUCACCCAUGUAAAACAAAAAAACAAAAAAAAAAAGUAGAAGGCCCAAAAA [Default title]
- apparent KD of MS2 coat protein [1]: 24.6 nM
- apparent KD of MS2 coat protein [2]: 30 nM

Sequence: AAAAAGGUAGGAUAUACAUGAGGAUCACCCAUGUAAAAAAACGCAGAAAAAAACAAUUGUAGAAGGGCCAAAAA [Ex3 Malc#6]
- apparent KD of MS2 coat protein [1]: 10.6 nM
- apparent KD of MS2 coat protein [2]: 15.9 nM

Sequence: AAAAAGUAAGGAUAUCUGGAUAGGAAAAAGAAAACCUAUCCAGAGAAGGUACAUGAGGAUCACCCAUGUAAAAA [Opal 30]
- apparent KD of MS2 coat protein [1]: 14.1 nM
- apparent KD of MS2 coat protein [2]: 20.8 nM

Sequence: AAAAAGUGAGGAUAUACAUGAGGAUCACCCAUGUGAAAGUCGAAAAAAAAGACAAAAAGUAGAAGGCACAAAAA [Fiskers Exclusion 3 D2]
- apparent KD of MS2 coat protein [1]: 30.3 nM
- apparent KD of MS2 coat protein [2]: 22.7 nM

Sequence: AAAAAGUGAGGAUAUACAUGAGGAUCACCCAUGUGUAUAAAAAAUUACACAAAAGCAUGUAGAAGGCACUAAAA [JL In the Red]
- apparent KD of MS2 coat protein [1]: 143 nM
- apparent KD of MS2 coat protein [2]: 37 nM

Sequence: AAAAAGUGAGGAUAUACGAUGUGGAGUAGACACAACCAGACGUAGAAGGCACAUGAGGAUCACCCAUGUCCAAA [EX4 Malc#17]
- apparent KD of MS2 coat protein [1]: 28.6 nM
- apparent KD of MS2 coat protein [2]: 21 nM

Sequence: AAAAAGUGAGGAUAUACGCUGAAGAGAAGACACAACCAGGCGUAGAAGGCACAUGAGGAUCACCCAUGUACAAA [Ex4 Malc#8]
- apparent KD of MS2 coat protein [1]: 27.3 nM
- apparent KD of MS2 coat protein [2]: 28.2 nM

Sequence: AAAAAGUGAGGAUAUACGUUGAAAAAAAAAAAAAAAAAGCGGUAGAAGGCACAUGAGGAUCACCCAUGUAAAAA [Ex4 Malc#4]
- apparent KD of MS2 coat protein [1]: 22.5 nM
- apparent KD of MS2 coat protein [2]: 32.7 nM

Sequence: AAAAAGUGAGGAUAUUCGGAAGGGAAAGCGCAAACCCAACCGAAGAAGGCACAUGAGGAUCACCCAUGUAAAAA [Ecls4-III 65% - Early G segment 1]
- apparent KD of MS2 coat protein [1]: 35.2 nM
- apparent KD of MS2 coat protein [2]: 30.6 nM

Sequence: AAAAAGUUAGGAUAUACAUGAGGAUCACCCAUGUGCACGUAUGGAGAAUAUGGUGGUAGUAGAAGGGACAAAAA [EX2 Malc#18]
- apparent KD of MS2 coat protein [1]: 66.6 nM
- apparent KD of MS2 coat protein [2]: 55.3 nM

Sequence: UUUGGGUGGCUGGAGGAUAUCCUGGUUGUUACAUGAGGAUCACCCAUGUGCCGCGCGGUUCGCGAGGAGAAGGCUGGCGGCCGUU (Eterna round: R96, puzzle: Same State 2)
- apparent KD of MS2 coat protein ([3]; input ligand: FMN 200 uM): 42.4 nM
- apparent KD of MS2 coat protein [3, 4]: 74.4 nM
- apparent KD of MS2 coat protein ([3]; input ligand: none): 154 nM

Sequence: UUUGGGUGGCUGGAGGAUAUCCUGGUUGUUACAUGAGGAUCACCCAUGUGCCGCGCGGUUCGCGAGGAGAAGGCUGGCGGCCGUU (puzzle: Same State 2)
- apparent KD of MS2 coat protein [3, 5]: 91.2 nM

Sequence: UUUGGGUGGCUGGAGGAUAUUCGAGUGGUUACAUGAGGAUCACCCAUGUGUCGCGCGGUACGCGAGGAGAAGGCUGGCGGCCGUU (puzzle: Same State 2)
- apparent KD of MS2 coat protein [3, 5]: 53.4 nM

Sequence: UUUUUGAUCCGAGGAUAUCCUUUUUUCUUACAUGAGGAUCACCCAUGUAAAGGGAUUGAGUUGUAGGAGAAGGCGGUUUUUUUU [JR_SSNG2_Sub060] (Eterna round: R96, puzzle: Same State NG 2)
- apparent KD of MS2 coat protein ([3]; input ligand: FMN 200 uM): 17.5 nM
- apparent KD of MS2 coat protein [3, 4]: 32.4 nM
- apparent KD of MS2 coat protein ([3]; input ligand: none): 32.3 nM
